Results as given in US20230272055A1 (Incyte, published 2023).

B1: anti-mutCALR antibody clone 175 (antibody, human IgG1, lambda, N297A, V domains shown)
VH: EVQLVQSGAEVKKPGASVKVSCKVSGYTLTELSMQWVRQAPGKGLEWMGGFDPDDGETMYAEKFQGRLTVTEDTSTDTVYMELSSLRSEDTAVYFCATSPGYDFFDYWGQGTLVTVSS
VL: SYVLTQPPSVSVAPGQTARITCGGSDIGDEIVHWYQQKPGQAPVLVVYDDSDRPSGIPERFSGSNSGNTATLTISRAQAGDEADYYCQVWDSSSDHLIFGGGTKLTVLG
notes: human IgG1 N297A variant of clone 17
B2: anti-mutCALR antibody clone 178 (antibody, human IgG1, lambda, N297A, V domains shown)
VH: EVQLVQSGAEVKKPGASVKVSCKVSGYTLTELSMQWVRQAPGKGLEWMGGFDPDEGETMYAEKFQGRLTVTEDTSTDTVYMELSSLRSEDTAVYFCATSPGYDFFDYWGQGTLVTVSS
VL: SYVLTQPPSVSVAPGQTARITCGGSDIGDEIVHWYQQKPGQAPVLVVYDDSDRPSGIPERFSGSNSGNTATLTISRAQAGDEADYYCQVWDSSSDHLIFGGGTKLTVLG
notes: as for B1
B3: anti-mutCALR antibody clone 176 (antibody, human IgG1, lambda, N297A, V domains shown)
VH: EVQLVQSGAEVKKPGASVKVSCKVSGYTLTELSMQWVRQAPGKGLEWMGGFDPDAGETMYAEKFQGRLTVTEDTSTDTVYMELSSLRSEDTAVYFCATSPGYDFFDYWGQGTLVTVSS
VL: SYVLTQPPSVSVAPGQTARITCGGSDIGDEIVHWYQQKPGQAPVLVVYDDSDRPSGIPERFSGSNSGNTATLTISRAQAGDEADYYCQVWDSSSDHLIFGGGTKLTVLG
B4: anti-mutCALR antibody clone 179 (antibody, human IgG1, lambda, N297A, V domains shown)
VH: EVQLVQSGAEVKKPGASVKVSCKVSGYTLTELSMQWVRQAPGKGLEWMGGFDPDDAETMYAEKFQGRLTVTEDTSTDTVYMELSSLRSEDTAVYFCATSPGYDFFDYWGQGTLVTVSS
VL: SYVLTQPPSVSVAPGQTARITCGGSDIGDEIVHWYQQKPGQAPVLVVYDDSDRPSGIPERFSGSNSGNTATLTISRAQAGDEADYYCQVWDSSSDHLIFGGGTKLTVLG
notes: as for B1
B5: anti-mutCALR antibody clone 177 (antibody, human IgG1, lambda, N297A, V domains shown)
VH: EVQLVQSGAEVKKPGASVKVSCKVSGYTLTELSMQWVRQAPGKGLEWMGGFDPDSGETMYAEKFQGRLTVTEDTSTDTVYMELSSLRSEDTAVYFCATSPGYDFFDYWGQGTLVTVSS
VL: SYVLTQPPSVSVAPGQTARITCGGSDIGDEIVHWYQQKPGQAPVLVVYDDSDRPSGIPERFSGSNSGNTATLTISRAQAGDEADYYCQVWDSSSDHLIFGGGTKLTVLG
notes: as for B1
B6: anti-mutCALR antibody clone 72 (antibody, human IgG1, lambda, N297A, V domains shown)
VH: EVQLVQSGAEVKKPGASVKVSCKVSGYTLTELSMQWVRQAPGKGLEWMGGFDPDSGETMYAEKFQGRLTVTEDTSTDTVYMELSSLRSEDTAVYFCATSPGYDFFDYWGQGTLVTVSS
VL: SYVLTQPPSVSVAPGKTARITCTGTSSDVGGYNYVSWYQQKPGQAPVLVVYEVSNRPSGIPERFSGSNSGNTATLTISRVEAGDEADYYCQVWDSSNDLLIFGGGTKLTVLG
notes: human IgG1 N297A variant of clone 6
B7: anti-mutCALR antibody clone 73 (antibody, human IgG1, lambda, N297A, V domains shown)
VH: EVQLVQSGAEVKKPGASVKVSCKVSGYTLTELSMQWVRQAPGKGLEWMGGFDPDEGETMYAEKFQGRLTVTEDTSTDTVYMELSSLRSEDTAVYFCATSPGYDFFDYWGQGTLVTVSS
VL: SYVLTQPPSVSVAPGKTARITCTGTSSDVGGYNYVSWYQQKPGQAPVLVVYEVSNRPSGIPERFSGSNSGNTATLTISRVEAGDEADYYCQVWDSSNDLLIFGGGTKLTVLG
notes: as for B6
B8: anti-mutCALR antibody clone 75 (antibody, human IgG1, lambda, N297A, V domains shown)
VH: EVQLVQSGAEVKKPGASVKVSCKVSGYTLTELSMQWVRQAPGKGLEWMGGFDPDDGETMYAEKFQGRLTVTEDTSTDTVYMELRSLTSEDTALYFCATSPGYDFFDYWGQGTLVTVSS
VL: SYVLTQPPSVSVAPGKTARITCGGNNIGSKSVHWYQQKPGQAPVLVVYDDSDRPSGIPERFSGSNSGNTATLTISRVEAGDEADYYCQVWDSSNDLLIFGGGTKLTVLG
B9: anti-mutCALR antibody clone 79 (antibody, human IgG1, lambda, N297A, V domains shown)
VH: EVQLVQSGAEVKKPGASVKVSCKVSGYTLTELSMQWVRQAPGKGLEWMGGFDPDDAETMYAEKFQGRLTVTEDTSTDTVYMELRSLTSEDTALYFCATSPGYDFFDYWGQGTLVTVSS
VL: SYVLTQPPSVSVAPGKTARITCGGNNIGSKSVHWYQQKPGQAPVLVVYDDSDRPSGIPERFSGSNSGNTATLTISRVEAGDEADYYCQVWDSSNDLLIFGGGTKLTVLG
B10: anti-mutCALR antibody clone 84 (antibody, human IgG1, lambda, N297A, V domains shown)
VH: EVQLVQSGAEVKKPGASVKVSCKVSGYTLTELSMQWVRQAPGKGLEWMGGFDPDDAETMYAEKFQGRLTVTEDTSTDTVYMELSSLRSEDTAVYFCATSPGYDFFDYWGQGTLVTVSS
VL: SYVLTQPPSVSVAPGKTARITCGGNNIGSKSVHWYQQKPGQAPVLVVYDDSDRPSGIPERFSGSNSGNTATLTISRVEAGDEADYYCQVWDSSNDLLIFGGGTKLTVLG
B11: anti-mutCALR antibody clone 82 (antibody, human IgG1, lambda, N297A, V domains shown)
VH: EVQLVQSGAEVKKPGASVKVSCKVSGYTLTELSMQWVRQAPGKGLEWMGGFDPDSGETMYAEKFQGRLTVTEDTSTDTVYMELSSLRSEDTAVYFCATSPGYDFFDYWGQGTLVTVSS
VL: SYVLTQPPSVSVAPGKTARITCGGNNIGSKSVHWYQQKPGQAPVLVVYDDSDRPSGIPERFSGSNSGNTATLTISRVEAGDEADYYCQVWDSSNDLLIFGGGTKLTVLG
B12: anti-mutCALR antibody clone 125 (antibody, human IgG1, lambda, N297A, V domains shown)
VH: EVQLVQSGAEVKKPGASVKVSCKVSGYTLTELSMQWVRQAPGKGLEWMGGFDPDAGETMYAEKFQGRLTVTEDTSTDTVYMELRSLTSEDTALYFCATSPGYDFFDYWGQGTLVTVSS
VL: SYELTQPPSVSVAPGKTARITCGGDNIGSKSVHWYQQKPGQAPVLVVYDDSDRPSGIPERFSGSNSGNTATLTINRVEAGDEADYYCQVWDSSNDLLIFGGGTKLTVLG
B13: anti-mutCALR antibody clone 78 (antibody, human IgG1, lambda, N297A, V domains shown)
VH: EVQLVQSGAEVKKPGASVKVSCKVSGYTLTELSMQWVRQAPGKGLEWMGGFDPDEGETMYAEKFQGRLTVTEDTSTDTVYMELRSLTSEDTALYFCATSPGYDFFDYWGQGTLVTVSS
VL: SYVLTQPPSVSVAPGKTARITCGGNNIGSKSVHWYQQKPGQAPVLVVYDDSDRPSGIPERFSGSNSGNTATLTISRVEAGDEADYYCQVWDSSNDLLIFGGGTKLTVLG
B14: anti-mutCALR antibody clone 81 (antibody, human IgG1, lambda, N297A, V domains shown)
VH: EVQLVQSGAEVKKPGASVKVSCKVSGYTLTELSMQWVRQAPGKGLEWMGGFDPDAGETMYAEKFQGRLTVTEDTSTDTVYMELSSLRSEDTAVYFCATSPGYDFFDYWGQGTLVTVSS
VL: SYVLTQPPSVSVAPGKTARITCGGNNIGSKSVHWYQQKPGQAPVLVVYDDSDRPSGIPERFSGSNSGNTATLTISRVEAGDEADYYCQVWDSSNDLLIFGGGTKLTVLG
B15: anti-mutCALR antibody clone 76 (antibody, human IgG1, lambda, N297A, V domains shown)
VH: EVQLVQSGAEVKKPGASVKVSCKVSGYTLTELSMQWVRQAPGKGLEWMGGFDPDAGETMYAEKFQGRLTVTEDTSTDTVYMELRSLTSEDTALYFCATSPGYDFFDYWGQGTLVTVSS
VL: SYVLTQPPSVSVAPGKTARITCGGNNIGSKSVHWYQQKPGQAPVLVVYDDSDRPSGIPERFSGSNSGNTATLTISRVEAGDEADYYCQVWDSSNDLLIFGGGTKLTVLG
B16: anti-mutCALR antibody clone 124 (antibody, human IgG1, lambda, N297A)
heavy: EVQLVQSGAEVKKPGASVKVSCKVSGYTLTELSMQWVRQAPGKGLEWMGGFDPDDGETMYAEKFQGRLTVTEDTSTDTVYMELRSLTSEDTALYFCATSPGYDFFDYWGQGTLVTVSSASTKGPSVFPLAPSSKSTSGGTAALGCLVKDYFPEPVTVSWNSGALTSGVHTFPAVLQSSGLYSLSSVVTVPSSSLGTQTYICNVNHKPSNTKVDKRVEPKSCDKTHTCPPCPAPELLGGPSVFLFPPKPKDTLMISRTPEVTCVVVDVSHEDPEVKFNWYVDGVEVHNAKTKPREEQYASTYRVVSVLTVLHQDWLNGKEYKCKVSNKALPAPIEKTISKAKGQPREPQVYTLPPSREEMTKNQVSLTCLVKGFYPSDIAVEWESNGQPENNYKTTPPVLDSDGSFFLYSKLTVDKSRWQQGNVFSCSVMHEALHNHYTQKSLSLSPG
light: SYELTQPPSVSVAPGKTARITCGGDNIGSKSVHWYQQKPGQAPVLVVYDDSDRPSGIPERFSGSNSGNTATLTINRVEAGDEADYYCQVWDSSNDLLIFGGGTKLTVLGQPKAAPSVTLFPPSSEELQANKATLVCLISDFYPGAVTVAWKADSSPVKAGVETTTPSKQSNNKYAASSYLSLTPEQWKSHRSYSCQVTHEGSTVEKTVAPTECS
B17: anti-mutCALR antibody clone 83 (antibody, human IgG1, lambda, N297A, V domains shown)
VH: EVQLVQSGAEVKKPGASVKVSCKVSGYTLTELSMQWVRQAPGKGLEWMGGFDPDEGETMYAEKFQGRLTVTEDTSTDTVYMELSSLRSEDTAVYFCATSPGYDFFDYWGQGTLVTVSS
VL: SYVLTQPPSVSVAPGKTARITCGGNNIGSKSVHWYQQKPGQAPVLVVYDDSDRPSGIPERFSGSNSGNTATLTISRVEAGDEADYYCQVWDSSNDLLIFGGGTKLTVLG
B18: anti-mutCALR antibody clone 77 (antibody, human IgG1, lambda, N297A, V domains shown)
VH: EVQLVQSGAEVKKPGASVKVSCKVSGYTLTELSMQWVRQAPGKGLEWMGGFDPDSGETMYAEKFQGRLTVTEDTSTDTVYMELRSLTSEDTALYFCATSPGYDFFDYWGQGTLVTVSS
VL: SYVLTQPPSVSVAPGKTARITCGGNNIGSKSVHWYQQKPGQAPVLVVYDDSDRPSGIPERFSGSNSGNTATLTISRVEAGDEADYYCQVWDSSNDLLIFGGGTKLTVLG

molecular target: T1, Recombinant MBP-mutCALR Type 1 fusion protein (human); assay: SPR, IgG captured, 1:1 fit, Exp. 2
T1 construct: custom made at Cepter; also called recombinant mutCALR protein
Summary of the method: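 Antibodies captured via amine-coupled anti-human IgG (Fc) on a CM4 chip; recombinant MBP-mutCALR Type 1 fusion protein as analyte. Run at 25 °C in Tris-buffered saline pH 7.2, 0.005% P20, 1 mM CaCl₂. Multiple-cycle kinetics fitted to a 1:1 binding model.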

In order of falling Kd:
1. B6  3.74 nM
2. B3  2.8 nM
3. B5  1.49 nM
4. B1  1.39 nM
5. B2  1.21 nM
6. B7  0.76 nM
7. B4  0.455 nM

In order of falling koff:
1. B4  0.00681 s⁻¹
2. B1  0.00631 s⁻¹
3. B5  0.00549 s⁻¹
4. B7  0.00546 s⁻¹
5. B6  0.00382 s⁻¹
6. B3  0.00278 s⁻¹
7. B2  0.00123 s⁻¹

In order of rising kon:
1. B3  994000 M⁻¹ s⁻¹
2. B2  1.02e+06 M⁻¹ s⁻¹
3. B6  1.02e+06 M⁻¹ s⁻¹
4. B5  3.7e+06 M⁻¹ s⁻¹
5. B1  4.53e+06 M⁻¹ s⁻¹
6. B7  7.18e+06 M⁻¹ s⁻¹
7. B4  1e+07 M⁻¹ s⁻¹

Molecular target: T2, human mutCALR on BaF3 cells stably expressing human MPL and human mutCALR (MPL-mutCALR cells) (human)
T2 construct: also called mutant calreticulin
T2 chain: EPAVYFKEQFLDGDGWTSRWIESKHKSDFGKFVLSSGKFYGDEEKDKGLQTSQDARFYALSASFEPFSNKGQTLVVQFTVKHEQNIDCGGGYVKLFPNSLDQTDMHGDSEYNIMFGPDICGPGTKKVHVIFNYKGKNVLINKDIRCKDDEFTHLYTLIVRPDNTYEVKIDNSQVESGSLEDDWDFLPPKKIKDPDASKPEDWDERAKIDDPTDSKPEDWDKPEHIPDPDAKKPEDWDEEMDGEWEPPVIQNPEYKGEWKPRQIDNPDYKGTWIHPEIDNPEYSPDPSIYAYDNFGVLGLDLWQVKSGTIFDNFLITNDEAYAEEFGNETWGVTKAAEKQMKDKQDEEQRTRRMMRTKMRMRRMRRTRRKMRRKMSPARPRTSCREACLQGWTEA
Assay: flow cytometry, BaF3 MPL-mutCALR cells
Experimental: On the day of the assay, cells were washed and resuspended in assay buffer. Approximately 200,000 cells/well were added to 96-well plates and stained with the indicated concentration of antibodies for 30 minutes on ice. Cells were then washed and stained with goat anti-human secondary conjugated to R-phycoerythrin (R-PE) (Jackson Immuno Research Laboratories) for 30 minutes on ice. The cells were then washed and analyzed by flow cytometry.

In order of falling “MPL-mutCALR AUC” value:
1. B16  93700
2. B8  84900
3. B10  82400
4. B9  71900
5. B13  64300
6. B17  62800
7. B12  62700
8. B15  55100
9. B18  54200
10. B14  52900
11. B11  50200

In order of falling EC50:
1. B14  8.2 ng/mL
2. B15  8.2 ng/mL
3. B18  6.7 ng/mL
4. B13  5.5 ng/mL
5. B11  4.8 ng/mL
6. B17  3.4 ng/mL
7. B9  3.3 ng/mL
8. B10  2.9 ng/mL
9. B12  2.1 ng/mL
